Assay: soluble fraction after stress (log2 fold change); higher = more stays soluble; pooled small domains, quantitative proteomics
Conditions: stress: 75 degC
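Further: 20 min heating vs room temperature control held 20 min.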

Sequence	soluble fraction (log2)
HMTPVKAPLPGVVTKINVSVGQQVKKGENVLVLEAMKMENNIAAEADGTVSGIAVKAGDSVLEGAVLLTI	0.0213
HMTPVTYELTVQSGAGQRIDKYLSEQLADLTRSYLQKLLKDGGVTVNGKTVKSNYKLSENDQIFLEVPDA	0.0544
HMTPVYLNARQKQILAFLKREEPAKVGDIAHALKTISINTLKKDLLYLRQKNLIESHGVLKGTIYTVK	-1.6
HMTQEFIVPKVTGYTVEDAMNLSGVKDVFEITVDSTEKSDQPAGIILFQDPKDGSSRKSDLVIHVVVSAGS	-0.363
HMTQEQKQQISDQLRAYVEQKGSGNKAAASMNGVSSATISKVLAGKWETISEDMWRSIAAQTGH	0.325
HMTQFSLTTEEINVLKKSYSEFTDSDKELFNKILEKYNKFKNESSNDIAFEAKILEKLQEIENFYE	-0.00344
HMTQMSVLFSELEAKDAATIADKLRERNIPYELSNNGSTILIPQEVLHDTRLSLASEGLPES	0.0765
HMTQPAEINRLVEQMGSSDYKSRQEAYERLHQMGPGILDLIYPYRNHADPEIQTRVRELILSYRW	-0.0738
HMTQQNRDELYRRMIDAGWDQLVRNGIRSLRVEQVAAAVGIAKGTFYHFFDSKDDFIYAMLMENRQ	-3.41
HMTQSPLHWSHRPIDLSELLTYLDRDGAFVYASGHKAPFTEVVRGFEHLLNIRLGDPRDVKRSVLQR	-0.109
HMTQTGEVIRWDAERGFGFIATADGRRHVFFHVRDFRGGAAPGVGLRVGFEEIQVGGKGPRAMDVRPL	-1.28
HMTRDGMTKEAFDSLLEDIMNILLDNGLKATTMGSIAKSLKMSKRTLYEIFSSKSQMVEEAIIASHTKMM	0.214
HMTREAILDTAEELLQRRGYNAFSYHHIAVQLGIRNAAIHYHFPAKEDLGIELVSRFRIRLAE	-0.28
HMTRLSSREAQVISLVRDGMTNQQIAERLELSPLTIKNHVQNILRKLDVSNRAQAVAKAVKARLI	-0.774
HMTRRGPLTEGDRVQVRDPKGRFHQVILVRGGRFQSNRGGFNHDDVIGRPDGQVIITDEGRQFQIL	0.493
HMTRYEQLAAQIRQQIEDNIWQSGDRLPSLRDTVKQSGLSLMTVLQSYQLLESQGWITARPQSGYYVAHR	0.284
HMTSGTLTLTQDTPVYTEPNKDGGVAYVQPQGDIQWDKYIFANGDNWYSFVQKNRDQEVRFYIAYSDVG	-0.561
HMTSHSFVITEEVGQRLDRFISDQLDTVSRTMIQKHIRSGAVVVNGKQVKSNYLLVLNDRINIALK	-2.75
HMTSISMDEKVVLGWHQVTTGAANSGMDKVVSNTSGLNVISPTWFKLSDNKGNYISIASKDYVDAAHKKGL	-0.108
HMTSKTLSADGGENTRLDKFLSNHLPEISRTKIQKMINDGLVYVNQNYAKASLVLDGTELISYTIPD	-0.0211
HMTSLTDDELSVVMLVREREISFDEITSETGFDAARLNSVLTMLKIKGIIDETTGKHYRISGGA	-1.01
HMTSLVRTSNLDGFEPLARSIGVDPVMELMRFGIPPDALIRENMFISFIGFIRLLEHTALAG	0.364
HMTSMYYLNKAVKEGNAKAIRQLLSAGININVRKRETSTPLDFAIKYKQTEIADLLRKHGGKTAEELKAEE	-0.668
HMTSNEKARNAASAERRADIVAAARELYEEQGLSKTSVQDITNRMGVARSLFYHYFPDKEAVTSAVLDDYV	0.0232
HMTSPELIELGERIRKRRQEMNLSQEALAEKAGISINTVSRVEGGQTAMSIEIFRKMIEILETDANGL	-0.586
HMTSRIHDYWTSPGQPGYAKIGWGTAGDFRRAKALIGEKIAANSPEDMRYLNQIIAQWHFDALGYWPGDH	-3

Sequence	soluble fraction (log2)
HMTSRLLTPRQRYVFDTAMKEGFYDVPRRITLTELASVLDVAKSTLSAQLHRIESTVHHAYADDIRRRS	-2.55
HMTSSQLNIEELERRMMMHLEQNGFITRSIYTNLTGRLKWKATEDLKIFVEKGLIRKMGRGNQMYYVKVE	-1.74
HMTSSQRDSILEFLKTRKDHPTADVVYMNVRKSFPNISLGTVYRNLTLLSDIGQIAKIRVGDGVDHFDADT	-0.505
HMTSSSGTITADWLNVRSGAGTNFSRLGSIAGGTRLTVISVHGEWYKITASFEGEIRTGYVHSQYVQMDGE	-3.87
HMTSTEQQIEQFIGTLVSLGGSAGNQRLLEALGWQDSIYQRVKQQLIDDGRIRPGRGRGGSVVLAE	-0.576
HMTSVAGIERFLASGAIKGMGAATAKLIVEHFGADTLNMLDMYPERLTEIKGIGPKKATAIIEGYRELS	-0.897
HMTSVMAWRLITPIPQHGIIRSSQVQLQKHAPNSLKFLDVDSSPVGKQVKHGIAAGHWLSKDDFTE	-1.05
HMTTAASIGRLVRDARKQRGLTQHELASLLSTSQSAIHRIESGNQNLSLEMINRIAQALESPLIVPGG	-0.377
HMTTIRQQAEVPLSAAGRRFDQALAEMFPAYSRSRLSGWIKAGAATLDGAPAAPRQLLRGGERVELDVELE	-0.166
HMTTKGGLVRDTVLNEFRDSEFTRREVELVLNGVASERTIRGALSEMVERGELTQVNFGISTRYRLNQ	-0.563
HMTTLEGIEKYLGSGMIRGIGPAYAGRLTKVFGEAVFDVIEQSPERLREVEGIGPKRVSRIVSGWAEQ	-0.31
HMTTLLNHLKGTRLEAGLSQQALARLAGISRQAYSALESGSSNPSTEVALRLARALKTSVDHLFSLPE	-1.09
HMTTQVPYTAKLININGGSVVNFRKEPGMNTTIIRTYPVGTEVTVLETGVNWSKVEIDGVTGYVSSYFL	-2.33
HMTTRLLTPRQRQVFDIAIREGFYDSPRRISLTELADLLGVAKSTLSVQLQRVESTIVHTFSEEIRRRS	-2.66
HMTTRQREALLDYLSRHPDQPLTVREIAAGVEPDGVSLSAVYRNLAELEAAGLIRRESRPGSREAVVQYV	-0.0192
HMTTTTTYITNTDAVNIRQQATTSSTSLGKLAKNTILSVKKKSGDWYQITYKKQTAYIHASLVDKKTAKVT	-1.62
HMTTVDYDALRAAILQQVVSEDTTPALTTENTEIKYKFKFGLDTWVDLDGGKIAPAVSAKSYEIQISFKG	0.185
HMTTYVNGSWSGWNGSTVVKLTDGSVWRQAEYHYEYHYAYRPQARLERDELFVEGMSRGVRV	-0.0587
HMTVADMQQKANVKRRNSNSHEAILDATVKLLGSSGYIDFSIEKVASQAGVGKQTIYRWWPSRADLVLEVW	-0.506
HMTVAEVEDRMEASRVRQALDAVGEPHRTTIALAYFTGLTHTEIAQRMGVPLGTVKSRIRDGMAKMRTHLG	-1.24
HMTVDHDERRSMILEAFMRLAAREGLHAVSLRGVAAEAGISLRLVQYYFETKARLMQSGLTALET	-0.141
HMTVKKLIINEDNSGRRIDNYLLSIFNSVPRSKIYNIIRKGEVRVNSSRIKPSYRLEEGDQVRIPPNLDYT	-1.05
HMTVKRNILQELLKTAFKHPEDFRPSKTFYGETGIGQKRFWALYYGHKAVTQKEYYAVADYLG	-0.0737
HMTVLDYNENVLSKVMNAAEINDSDKEAFIAFAKDYNSDDNLYLKKEELETAAGAWNARNVE	0.2
HMTVLTDEIKVILISYIKENDFKKKHGNRKMMMTAQDMYDELVEKGYKISYPTVTQYVQKYRENETT	-1.63
HMTVMTGSQRRKKILELMRDAKEPLSGGALGKETGVSRHVVVQDIALLRTQGYPIVATARGYIINE	-1.32

Sequence	soluble fraction (log2)
HMTVRLSVSADGKFFWNESQVSEEELFPRLQAEAAKEPQPDLHIRGDKNVRYEFVAQAMAAAQRAGVRKI	-0.797
HMTVSADQTAADAVIKLINAIGTVSENSGSAISAARSGYDALTDTQKKLVTNYNKLTQAEQVFSSLPS	0.336
HMTVSGNIAGDYKDYLPQKTDVINGMTVTYRMVDDAVYLASWKHAGQNHVFLFNDPVSVERAREMI	-0.556
HMTVSIDSLFDKFEDLQEQGLGDKTEEGQELRGLIRAFIEQEHLSVRITRSTSNQELLDMIEEAMQ	-1.25
HMTVSRRYTENEMETALKAYLATHNFISRRDMQQEFALTIYSARKWLNHFVDVGLIERIGLKNAPIYKL	-0.0893
HMTVTKYGKKILEIVSSSRSHMTAEEIFDALRQTYPTVVLATVYNNLNRLWQDDLIRKVSVEGMPDRYD	-1.28
HMTVVPNIVNQPEAAGTNLLISSNLKPGNRAVQYSDTVKAGDIISQSPEPGAQATLGGKVDYVISQGPAPT	0.174
HMTWIAEIELRLMGNGAVTGAKIVKSTDLKDVDAAIYRAALEASPYPAPESGIGGRFTIKLKY	-0.037
HMTYLIKFDENGRRSDTYVAEEKTQEQVTELLEKGFVLITEEDYQLLVGNVDGKEYIRNADGTYSEYT	0.563
HMTYMWTTDGVNLRSEPNTDSAVVTVLGVGTQVRMIGEEDGWVKVSFNDQEGYIRADFLTTE	-0.198
HMTYSAFITARNKRIAEEYSVLLDSLNISNNVIYRLGSWVVEVNVSDHSRAIDEIYSYERSGRIDKV	-3.1
HMTYYEGYYRKNQKGFGFVIVDGRDEDIYIDAKNMNGALNNDLVVVEELKGQNGKKTEGRVVKVLKKE	-0.17
HMVADLSGVGDKDIIVDQFIYHEVLPKETIYSIVKSFNVTSEDLNKNNPFLRANGLRIGQVIRIPLKI	-1.27
HMVAEPTYGRTTDVLNIRSGPSTDDERIGQLSRGAVVTILEEKDGWYRLQRGYISADYVTQISAEEASNS	-0.0612
HMVAEPVYGKVTEGPLNVRSAPSTDSEKVDSFSTGKVLTILETLDGWYKVEEGYVSADYVTIIDAAEAASS	-0.162
HMVAGHLSEKKGYYYAVLNYKDYTGKRKSKWVSTGLPVKGNKRRAEKILADIKRDFVPEEPKR	-0.96
HMVAGQDPVKRQQILDGAKRVFLGVGFDAASMNDITREAGVSKGTIYVYFGSKEELFGALIDR	-0.828
HMVAMLDASYRGVMQTISTLLAQGNTERAYDEAVNARGQMSKQQWNNLANLIWERTGQKIDSGVSYK	0.367
HMVDEAQSLERNVLLTVLSRIGRDSRVVLTHDIAQRDNLRVGRHDGVVAVVDRLKGHPLFAHVTL	0.163
HMVDERMVTYINSLDKGNTPFLNELEKEALANYVPIIRREMQSFLKVLLQIKAPLRILEVGTAVGFSTILM	0.0501
HMVDGAHKQQAAVQALTPALKVLAAAPEGKKGQAIQALRAVLKQHGRWLDDATAQQVHEQLLAAGDAQGWQ	0.478
HMVDIGQSIRVELIREGKDSHQAVGYLRDGSMVVVNHGRKLIGSTVEVEITSIVPSSAGKVIFAEYLE	-2.67
HMVDIQTGQKVRIHTSQFAGKIGNITALNVKSAELPNGIRTATASILMQSNENVMLPVSNFDIIE	-0.0419
HMVDIVLDILKIVAEKQPGNQFSQSILMQYQERGGLSKKQLEGLYGKAKRIPEIPQNKLATLEAIILR	-1.84
